Data from a protein production outcome set (Wang et al. 2014).

Test: label from the status in PepcDB records

## MERRGELHRVRVPVSAELEIAEIADRVVKAGGPALLFERVVGKDFPVAIGLFGTRARTAFALGVEDLDELARKVEALLALEPGKGGLSALLGLLPKLPLLRGFFPRRVRRAPVQEVVWRGEEVDLRRLPVLKCWPLDGGPFLTLPLVITKDPETGELNLGMYRMQVLDPRSTAMHWQWHKVGRRHLEKAKRLGRRLEVAVALGGDPVLTYAATAPLPPLPGVSEFHLAGFLRGAPIELARGVTVDLPVPAEAEFVLEGYIDPEEPLVEEGPFGDHTGFYTPVDLYPRFHVTAVTHRKGAIYPATLVGVPPMEDAYLIEATERLFLPALRLVLPEVVDYHMPPEGVAHNWVNVSLRKAYPGQAYKVAYGMLGLGQMMFAKVIVAVDADVPVKPGFAALLEALKHALPGRDTLLLRGPVDVLDHSSRAFAFGGKLVIDGTRKLPEEGGEAPFVPKAHPGLPEDPEVLDQRQWPGLWGAVLAKRRPHQAWEVAERLLRAPQSAGIRLLLLADEDTALSPEELLWYVLNNVDPERDARVMPGVEGPVLVLDGTRKLPEEGFPRVWPERIRMDPKVKALVEARWAEYGLGWTTVGE
  protein production: failed

## MERRLGVRAWVKENRGSFQPPVCNKLMHQEQLKVMFIGGPNTRKDYHIEEGEEVFYQLEGDMVLRVLEQGKHRDVVIRQGEIFLLPARVPHSPQRFANTVGLVVERRRLETELDGLRYYVGDTMDVLFEKWFYCKDLGTQLAPIIQEFFSSEQYRTGKPIPDQLLKEPPFPLSTRSIMEPMSLDAWLDSHHRELQAGTPLSLFGDTYETQVIAYGQGSSEGLRQNVDVWLWQLEGSSVVTMGGRRLSLAPDDSLLVLAGTSYAWERTQGSVALSVTQDPACKKPLG
  protein production: failed

## MERSALVTGGASGLGRAAALALKARGYRVVVLDLRREGEDLIYVEGDVTREEDVRRAVARAQEEAPLFAVVSAAGVGLAEKILGKEGPHGLESFRRVLEVNLLGTFNVLRLAAWAMRENPPDAEGQRGVIVNTASVAAFEGQIGQAAYAASKGGVVALTLPAARELAGWGIRVVTVAPGLFDTPLLQGLPEKAKASLAAQVPFPPRLGRPEEYAALVLHILENPMLNGEVVRLDGALRMAPR
  protein production: not failed

## MESEGEAQMFADCDQKTVKQTAAKPMSSKKKQDFQALASDRQLAIVFSSMIQVSEAFDYGIGNPEYFVRISMTEEEADIAKENLESIKLENKSLKKQNSEAVALLQKTRNQDMSRIEIQQLTENRAGFFETADSMIKLINQVTPKNAKKTRQQLDQLKKQYTQYSAESIKIMNSIVKKQKADKASFERHLEALLQKQPGQQVRSELYLEHHHHHH
  protein production: not failed

## MESFSSKSLALQAEKKLLSKMAGRSVAHLFIDETSSEVLDELYRVSKEYTHSRPQAQRVIKDLIKVAIKVAVLHRNGSFGPSELALATRFRQKLRQGAMTALSFGEVDFTFEAAVLAGLLTECRDVLLELVEHHLTPKSHGRIRHVFDHFSDPGLLTALYGPDFTQHLGKICDGLRKLLDEGKL
  protein production: failed

## MESIEQQLTELRTTLRHHEYLYHVMDAPEIPDAEYDRLMRELRELETKHPELITPDSPTQRVGAAPLAAFSQIRHEVPMLSLDNVFDEESFLAFNKRVQDRLKNNEKVTWCCELKLDGLAVSILYENGVLVSAATRGDGTTGEDITSNVRTIRAIPLKLHGENIPARLEVRGEVFLPQAGFEKINEDARRTGGKVFANPRNAAAGSLRQLDPRITAKRPLTFFCYGVGVLEGGELPDTHLGRLLQFKKWGLPVSDRVTLCESAEEVLAFYHKVEEDRPTLGFDIDGVVIKVNSLAQQEQLGFVARAPRWAVAFKFPAQEQMTFVRDVEFQVGRTGAITPVARLEPVHVAGVLVSNATLHNADEIERLGLRIGDKVVIRRAGDVIPQVVNVVLSERPEDTREVVFPTHCPVCGSDVERVEGEAVARCTGGLICGAQRKESLKHFVSRRAMDVDGMGDKIIDQLVEKEYVHTPADLFKLTAGKLTGLERMGPKSAQNVVNALEKAKETTFARFLYALGIREVGEATAAGLAAYFGTLEALEAASIEELQKVPDVGIVVASHVHNFFAEESNRNVISELLAEGVHWPAPIVINAEEIDSPFAGKTVVLTGSLSQMSRDDAKARLVELGAKVAGSVSKKTDLVIAGEAAGSKLAKAQELGIEVIDEAEMLRLLGS
  protein production: not failed

## MESITLDIELLQLPETSPMSMKSNQDFVKKLFDQWLALPETNRLVTSLVNDAKAGVALNVMCGGGSSGTNSGSNSPLASMFPARNGPPLSPRNSTGSPRIARQRTGLSNLSSPLKVVSDHVKELIPQFYFEDGRPPPNDLKEQCIAKINSLFYGHEDGLQLQEFKLVTTEICKVPSFFSTSIFKKVDTNNTGFVKREDFIDYWVKGNMLTKEITSQVFTILKQPDHNYLVQDDFKPVLQELLATHPGLEFLQGTPEFQDRYAETVIYRIYYYINRSGNGHLTLRELKRGNLVDAMQHADEEEDINKVLRYFSYEHFYVIYCKFWELDTDHDFLIDKENLIRYSNHALTYRIVDRIFSQVPRKFTSKTEGKMGYEDFVYFILAEEDKSSEPSLEYWFKCIDLDANGVLTRNELQFFYEEQLHRMECMAQEAVLFEDILCQLFDMVKPEDEGFICLNDLKGSKLSGNVFNILFNLNKFMAFETRDPFLIRQERANPTWTEWDRFAHREYIRLSMEEDVEDASNGSAEAWDDSLEVPF
  protein production: failed

## MESLIGLVNRIQRACTVLGDYGGGTGSNAFNSLWEALPTVAVVGGQSSGKSSVLESIVGRDFLPRGSGIVTRRPLVLQLHKTDDGTEEYAEFLHLPKKQFTDFALVRREIQDETDRITGKNKQISPVPIHLSIYSPNVVNLTLIDLPGLTKVAVEGQPETIAEDIESMVRTYVDKPNCIILAISPANQDIATSDAIKLAKDVDPTGERTFGVLTKLDLMDKGTNALEVLEGRSYRLQHPWVGIVNRSQADINKNVDMMLARRKEREYFDTSPDYGHLASKMGSEYLAKLLSKHLESVIRTRIPSILSLINKSIEELERELDRMGRPVAVDAGAQLYTILEMCRAFDKIFKEHLDGGRPGGDRIYGVFDNQLPAALKKLPFDRHLSLQSVKKIVSEADGYQPHLIAPEQGYRRLIEGALGYFRGPAEASVDAVHYVLKELVRKSISETEELKRFPSLQVELAAAANSSLEKFREESKKSVIRLVDMESAYLTAEFFRKLPQEIERPVTNSKNQTASPSSATLDQYGDGHFRRIASNVSAYVNMVSDTLRNTIPKACVYCQVRQAKLALLNYFYSQISKREGKQLGQLLDEDPALMDRRLECAKRLELYKKARDEIDAVAWVR
  protein production: failed

## MESLLRADQTLIPGAMCSRRVWTHSELALPSVSVTELDLVRGLLQALQGLSSPFLFWDQTGQTFRAKSHIRVSHLSHSSLHVLLAGFLYPATCLKLVESIVAAINTSLRSPPTLMAFSDSVSAWLEANIALKEEVMIDNSDITVTPTLLGLTSAEYLLQVVHGAIPHTFFDSNSTISAAEIAVHVLDYLYKKLDEVCLVQGGEVEGFHMLLQMFAGSLLPYIEGLDSWLFEGTLDDPCEELFFTANQSVSVDDAEFWEKSYQLMKVPNSKSNVTSLNEKKVMSGHDANSSLASDKDKEQNTRVLCPLFIKDICKSIVSAGKSLQLMQHIPSTSSENSGKTQFHGRNGYGKSSVGSLLTKMSSCSSTADLSLSEVFCLTLAGLIGHGDHVSRYLWKDEADEWEISPTLASYISGELVNDMDNKDLPVLTCSERMWYKLLVGAVQEKRAMEAKSELQSACYATGVKDGNSGLTAQKALQGLFCNENLVVSVSKMDLERNRNAWNVLNLSQNYCLPSLNDESLLSAVFEESGMADAGLSGTNYKFGFQFGRSEYISSQDDTNLLETLFPFPTLLPSFQAEPMDTRLPVVIMQECFTIYIRRQVDYIGKVILSKLMNDWKLMHELAVLRAIYLLGSGDLLQHFLTVIFDRLGKGESSNDDFELNIILQESIRNSADAMLLSSPDSLVVSISREDRDKDDKGDIIPLSSTRKSRVNSFGIDCLESLKFTYKVPWPLELIANSEAIKKYNQVKRAKYVLDKARRWMWKGKGSATKIRKHHWLLEQKLLNFVDAFHQYVMDRVYHTAWRELCEAMVKAGSLDEVIYVHETYLLSIQRQCFVVQEKLWAIIASRINMILGLALEFYSIQQTLSSGGAVSAIKARCEMEIDRIEKQFEDCIAFLLRVLSSKLNVGHFPHLADLVTRINYNYHYMSDTGSLMTTSGAETNSSRPWTAKSDV
  protein production: failed

## MESPHAADPEGIDPQVVELATTIFALARAGDTASLDAYIRAGVPANLTNDQGDTLVMLAAYYGHADTVECLCRHGADVNRLNDRGQSPLAGAVFKDEDAVVKTLLAHGADPTLGQPSAIDTARMFGKEHYLELFDNA
  protein production: failed

## MESPTQTSEHIESMTEFLVKHYPDQLREISLSSDPKLHYPLFIEYAELVDDNPSLARQVFSDPEHYLRQFDDSAILAHKIALEHMKKFEEKIGIEKRFIHVRINTSGSPLERSPETFPSIGRVRVKHRGILMMLKGTVIRSGAVKMYEGEKMYRCRKCKHMFPIFPELESINSIVKPPFCPSQRSKACEGTNFDPVDDTVTRHDYQEIKIQENTQVLGVGVIPRSILVVLKDDLVDNVKAGDDVVVSGILTSKWSHDLKDVRCDLEPMLIANHVRRTNELKSEIDISDDLIEKFKNFWSHFRDTPLKGRNAILRGICPQVFGLFTVKLAVALTLIGGVQHVDASGTKVRGESHLLLIGDPGTGKSQFLKFAAKLSNRAVITTGLGSTSAGLTVTAVKDGGEWMLEAGALVLADGGLCCIDEFDSMREHDRATIHEAMEQQSISVAKAGLVTTLSTKTIVFGATNPKGQYDPDQYTKNPEWDAVVSSHILAEVQIEQDREVDDLTTIWPLPMLQRYIQFVKKNFRPVLSKEAEEIISSYYRLQRRSSTHNAARTTVRMLESLIRLAQGTSSVIVFINQNTPKTGTKERILMVLWCHAAHARLMFRNEVTRLDAITAILCIESSMTISAIVDSMGNALHSNFSEEPDQECILFRH
  protein production: failed

## MESQLTLITLTLVIATIFGVALSRFRISPIPAYLIAGLLGKSFGLDYSSDLFNFLSTLAINLVSFNVGISLDIRELKNILSKATIIAITEYIVGFTIISIISLIIGLPFYDTFILTIISVTTSTTITYKLIQNKIDDKQSGLILAVLSLEDVITFIALGVILSSNSNIVEIIPTSLASLGLGYLVSRTIINRSINTSEESVIISSIASVLSFSLLGQIFDIPSTLANFLLGLGASYALKDTKKVSRILSPLIDFSLIFFFFSAGSYLNLSLSSLYVLVPISLIMTLVKYLSFSTSYWLTGSNFLVAFRSGIYMTSLSELGIIVALNAFQQGIITSLVYNLSAFLVMMSSTITSITVPRERRIIGLISKTYEKLRIDRIDGALQRITRVVKLNRNTTSNFILRFILIGLITIFSASYLLIFLVSFARFFIYIAPLISVLVPFLLALLVIEETRRLSNLGQKRINEIILWIIYVFITINFEIFIVRIISELNYYVIYLGILVSIIVIVIMYQRLNTFIKELDKSL
  protein production: failed

## MESSKKMDSPGALQTNPPLKLHTDRSAGTPVFVPEQGGYKEKFVKTVEDKYKCEKCHLVLCSPKQTECGHRFCESCMAALLSSSSPKCTACQESIVKDKVFKDNCCKREILALQIYCRNESRGCAEQLTLGHLLVHLKNDCHFEELPCVRPDCKEKVLRKDLRDHVEKACKYREATCSHCKSQVPMIALQVSLLQNESVEKNKSIQSLHNQICSFEIEIERQKEMLRNNESKILHLQRVIDSQAEKLKELDKEIRPFRQNWEEADSMKSSVESLQNRVTELESVDKSAGQVARNTGLLESQLSRHDQMLSVHDIRLADMDLRFQVLETASYNGVLIWKIRDYNRRKQEAVMGKTLSLYSQPFYTGYFGYKMCARVYLNGDGMGKGTHLSLFFVIMRGEYDALLPWPFKQKVTLMLMDQGSSRRHLGDAFKPDPNSSSFKKPTGEMNIASGCPVFVAQTVLENGTYIKDDTIFIKVIVDTSDLPDP
  protein production: not failed

## MESTKSNDIPILRNVSDSFSDHYGKYLQRCGIFVPKDGDSSGPDAYVVFHNGQTRYVVAFSFTFYHKTEFSKRDIEKEAEQFFQEVISVLNDGSPSSVQLCFQFVVVCTRYDRSVVFSSEEQNIVEDASYLVTEHSAGSTLNESRRSCLQLVVVSQRNLERFLGRENFDILRKIGKASREEFRKDFSVWCKTVFESMSDEYVSPLEAKPFNVTLRVARNIRPRTNEENRMQMEGFQTAMQVEEGNTRGEQRVAASSSLSSSFDWNTFLREYCGLSEEDVAYCLPKVEDIDMDELPAVTKEILRDLGIDKPALRLKIRSSIRSYLANER
  protein production: failed
